Laboratory results taken from patent publication US20080064631A1 (published 2008).
Each block holds one binder with its values, some of them ahead of it.

Biological target: T1, proteinase 3 and neutrophil elastase (PR1) peptide on HLA-A*02:01 (human)
T1 peptide: VLQELNVTV
Assay: multimer staining
Experimental: Briefly, from PBMC that were derived from a healthy HLA-A2+ donor, the inventor elicited bulk PR1-CTL cell lines after 4 to 6 weeks of weekly stimulations with the PR1 peptide+low dose IL-2 and IL-7 in vitro, as outlined in FIG. 1. These CTL were subsequently placed into limiting dilution culture and after an additional 14 to 20 days. The cells were expanded with anti-CD3/anti-CD28 beads+IL-2+feeder cells+IL-15 to sufficient numbers and were then tested. The PR1-CTLs were stained with PR1-CTL tetramer to confirm specificity (FIG. 2). Unique cDNA sequences from the CDR3-α and CDR3-β regions from two different PR1-specific CTL clones that were derived from an HLA-A2+ healthy individual were obtained. The inventor reported that one PR1-CTL clone (F4) bears a relatively high avidity TCR for the PR1/HLA-A2 ligand, while the other CTL clone (B12) bears a relatively low avidity TCR. These conclusions are supported with PR1/HLA-A2 tetramer binding data and with cytotoxicity assays that show F4 to have a higher tetramer staining fluorescence intensity and a lower threshold of activation than the B12 clone, respectively. TCR-αβ CDR3 nucleic acid sequence data is provided showing clonality at the molecular level.

- binding result: recognises
B1: Low avidity PR1-CTL clone B12 TCR (TCR, V domains shown)
Valpha: AQSVTQPDIHITVSEGASLELRCNYSYGATPYLFWYVQSPGQGLQLLLKYFSGDTLVQGIKGFEAEFKRSQSSFNLRKPSVHWSDAAEYFCAVGGGARLMFGDGTQLVVKP
Vbeta: KAGVTQTPRYLIKTRGQQVTLSCSPISGHRSVSWYQQTPGQGLQFLSEYFSETQRNKGNFPGRFSGRQFSNPRSEMNVSTLELGDSALYLCASSGEAFYEQYFGPGTRLTVT

- binding result: recognises
B2: High avidity PR1-CTL clone F4 TCR (TCR, V domains shown)
Valpha: GQNIDQPTEMTATEGAIVQINCTYQTSGFNGLFWYQQHAGEAPTFLSYNVLDGLEEKGRFSSFLSRSKGYSYLLLKELQMKDSASYLCAVSRDSGNTPLVFGKGTRLSVIA
Vbeta: DSGVTQTPKHLITATGQRVTLRCSPRSGDLSVYWYQQSLDQGLQFLIQYYNGEERAKGNILERFSAQQFPDLHSELNLSSLELGDSALYFCASSPSGTGNIQYFGAGTRLSVL
